Results reported in patent publication US20250073311A1, “DOSAGE REGIME” (ZEALAND PHARMA A/S, priority 2021, published 2025).
Numbered stars: 1 amine (or outer) side, 2 acyl side, 3 side chain; on linkers, the order of the positions; unused ones are H or OH. Square brackets hold non-standard residues; d marks the D form. Side chains are listed from the residue outwards. * marks the point of attachment. C20 diacid = O=C(O)CCCCCCCCCCCCCCCCCCC(=O)*; C18 diacid = O=C(O)CCCCCCCCCCCCCCCCC(=O)*; γGlu = O=C(O)[C@H](CCC(=O)[*:2])N[*:1]; Stearoyl = CCCCCCCCCCCCCCCCCC(=O)*; AEEA = NCCOCCOCC(=O)O; Aib = CC(C)(N)C(=O)O

T1: human GLP-2 receptor (hGLP2-R) (human, UniProt O95838)
T1 sequence: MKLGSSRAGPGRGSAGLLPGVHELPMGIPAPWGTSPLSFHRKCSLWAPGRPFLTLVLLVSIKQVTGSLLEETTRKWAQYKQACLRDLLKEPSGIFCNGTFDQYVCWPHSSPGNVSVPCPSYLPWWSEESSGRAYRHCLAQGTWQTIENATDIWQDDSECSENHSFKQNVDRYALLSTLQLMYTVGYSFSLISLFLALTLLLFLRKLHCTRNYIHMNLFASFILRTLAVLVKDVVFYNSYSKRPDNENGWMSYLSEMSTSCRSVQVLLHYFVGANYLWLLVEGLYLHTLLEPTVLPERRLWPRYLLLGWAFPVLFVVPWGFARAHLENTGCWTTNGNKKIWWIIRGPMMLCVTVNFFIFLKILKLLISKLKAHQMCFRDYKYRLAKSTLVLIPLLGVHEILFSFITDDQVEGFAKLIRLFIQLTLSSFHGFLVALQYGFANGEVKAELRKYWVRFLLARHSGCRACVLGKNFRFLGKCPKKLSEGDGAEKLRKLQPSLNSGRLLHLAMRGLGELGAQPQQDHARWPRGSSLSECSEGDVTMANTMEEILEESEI


Columns and labels:
[1] = target: T1, human GLP-2 receptor (hGLP2-R); assay: cell-based or functional assay
[2] = target: human glucagon-like peptide 1 receptor (GLP-1R) (human, UniProt P43220); assay: cell-based or functional assay

Binder	EC50 GLP-2 (nM), cAMP AlphaScreen [1] [nM]	EC50 GLP-1 (nM), cAMP AlphaScreen [2] [nM]
H-H[Aib]EGTFTSELATILDK([γGlu-C20 diacid])QAARDFIAWLIQHKITD-OH (SMILES CC[C@H](C)[C@H](NC(=O)[C@H](Cc1ccccc1)NC(=O)[C@H](CC(=O)O)NC(=O)[C@H](CCCNC(=N)N)NC(=O)[C@H](C)NC(=O)[C@H](C)NC(=O)[C@H](CCC(N)=O)NC(=O)[C@H](CCCCNC(=O)CC[C@H](NC(=O)CCCCCCCCCCCCCCCCCCC(=O)O)C(=O)O)NC(=O)[C@H](CC(=O)O)NC(=O)[C@H](CC(C)C)NC(=O)[C@@H](NC(=O)[C@@H](NC(=O)[C@H](C)NC(=O)[C@H](CC(C)C)NC(=O)[C@H](CCC(=O)O)NC(=O)[C@H](CO)NC(=O)[C@@H](NC(=O)[C@H](Cc1ccccc1)NC(=O)[C@@H](NC(=O)CNC(=O)[C@H](CCC(=O)O)NC(=O)C(C)(C)NC(=O)[C@@H](N)Cc1c[nH]cn1)[C@@H](C)O)[C@@H](C)O)[C@@H](C)O)[C@@H](C)CC)C(=O)N[C@@H](C)C(=O)N[C@@H](Cc1c[nH]c2ccccc12)C(=O)N[C@@H](CC(C)C)C(=O)N[C@H](C(=O)N[C@@H](CCC(N)=O)C(=O)N[C@@H](Cc1c[nH]cn1)C(=O)N[C@@H](CCCCN)C(=O)N[C@H](C(=O)N[C@H](C(=O)N[C@@H](CC(=O)O)C(=O)O)[C@@H](C)O)[C@@H](C)CC)[C@@H](C)CC) [Compound 41]	0.62	0.048
H-H[Aib]EGTFSSELATILDEQAARDFIAWLIAHKITD[dK][dK][dK][dK][dK][dK]([γGlu-C18 diacid])-NH2 (SMILES CC[C@H](C)[C@H](NC(=O)[C@H](CC(C)C)NC(=O)[C@H](Cc1c[nH]c2ccccc12)NC(=O)[C@H](C)NC(=O)[C@@H](NC(=O)[C@H](Cc1ccccc1)NC(=O)[C@H](CC(=O)O)NC(=O)[C@H](CCCNC(=N)N)NC(=O)[C@H](C)NC(=O)[C@H](C)NC(=O)[C@H](CCC(N)=O)NC(=O)[C@H](CCC(=O)O)NC(=O)[C@H](CC(=O)O)NC(=O)[C@H](CC(C)C)NC(=O)[C@@H](NC(=O)[C@@H](NC(=O)[C@H](C)NC(=O)[C@H](CC(C)C)NC(=O)[C@H](CCC(=O)O)NC(=O)[C@H](CO)NC(=O)[C@H](CO)NC(=O)[C@H](Cc1ccccc1)NC(=O)[C@@H](NC(=O)CNC(=O)[C@H](CCC(=O)O)NC(=O)C(C)(C)NC(=O)[C@@H](N)Cc1c[nH]cn1)[C@@H](C)O)[C@@H](C)O)[C@@H](C)CC)[C@@H](C)CC)C(=O)N[C@@H](C)C(=O)N[C@@H](Cc1c[nH]cn1)C(=O)N[C@@H](CCCCN)C(=O)N[C@H](C(=O)N[C@H](C(=O)N[C@@H](CC(=O)O)C(=O)N[C@H](CCCCN)C(=O)N[C@H](CCCCN)C(=O)N[C@H](CCCCN)C(=O)N[C@H](CCCCN)C(=O)N[C@H](CCCCN)C(=O)N[C@H](CCCCNC(=O)CC[C@H](NC(=O)CCCCCCCCCCCCCCCCC(=O)O)C(=O)O)C(N)=O)[C@@H](C)O)[C@@H](C)CC) [Compound 38]	0.89	0.25
H-H[Aib]EGSFTSELATILDEQAARDFIAWLIEHKITD[dK][dK][dK][dK][dK][dK]([γGlu-C18 diacid])-NH2 (SMILES CC[C@H](C)[C@H](NC(=O)[C@H](Cc1ccccc1)NC(=O)[C@H](CC(=O)O)NC(=O)[C@H](CCCNC(=N)N)NC(=O)[C@H](C)NC(=O)[C@H](C)NC(=O)[C@H](CCC(N)=O)NC(=O)[C@H](CCC(=O)O)NC(=O)[C@H](CC(=O)O)NC(=O)[C@H](CC(C)C)NC(=O)[C@@H](NC(=O)[C@@H](NC(=O)[C@H](C)NC(=O)[C@H](CC(C)C)NC(=O)[C@H](CCC(=O)O)NC(=O)[C@H](CO)NC(=O)[C@@H](NC(=O)[C@H](Cc1ccccc1)NC(=O)[C@H](CO)NC(=O)CNC(=O)[C@H](CCC(=O)O)NC(=O)C(C)(C)NC(=O)[C@@H](N)Cc1c[nH]cn1)[C@@H](C)O)[C@@H](C)O)[C@@H](C)CC)C(=O)N[C@@H](C)C(=O)N[C@@H](Cc1c[nH]c2ccccc12)C(=O)N[C@@H](CC(C)C)C(=O)N[C@H](C(=O)N[C@@H](CCC(=O)O)C(=O)N[C@@H](Cc1c[nH]cn1)C(=O)N[C@@H](CCCCN)C(=O)N[C@H](C(=O)N[C@H](C(=O)N[C@@H](CC(=O)O)C(=O)N[C@H](CCCCN)C(=O)N[C@H](CCCCN)C(=O)N[C@H](CCCCN)C(=O)N[C@H](CCCCN)C(=O)N[C@H](CCCCN)C(=O)N[C@H](CCCCNC(=O)CC[C@H](NC(=O)CCCCCCCCCCCCCCCCC(=O)O)C(=O)O)C(N)=O)[C@@H](C)O)[C@@H](C)CC)[C@@H](C)CC) [Compound 40]	0.5	0.074
H-H[Aib]EGSFTSELATILDK(Stearoyl)QAARDFIAWLIQYKITD-OH (SMILES CCCCCCCCCCCCCCCCCC(=O)NCCCC[C@H](NC(=O)[C@H](CC(=O)O)NC(=O)[C@H](CC(C)C)NC(=O)[C@@H](NC(=O)[C@@H](NC(=O)[C@H](C)NC(=O)[C@H](CC(C)C)NC(=O)[C@H](CCC(=O)O)NC(=O)[C@H](CO)NC(=O)[C@@H](NC(=O)[C@H](Cc1ccccc1)NC(=O)[C@H](CO)NC(=O)CNC(=O)[C@H](CCC(=O)O)NC(=O)C(C)(C)NC(=O)[C@@H](N)Cc1c[nH]cn1)[C@@H](C)O)[C@@H](C)O)[C@@H](C)CC)C(=O)N[C@@H](CCC(N)=O)C(=O)N[C@@H](C)C(=O)N[C@@H](C)C(=O)N[C@@H](CCCNC(=N)N)C(=O)N[C@@H](CC(=O)O)C(=O)N[C@@H](Cc1ccccc1)C(=O)N[C@H](C(=O)N[C@@H](C)C(=O)N[C@@H](Cc1c[nH]c2ccccc12)C(=O)N[C@@H](CC(C)C)C(=O)N[C@H](C(=O)N[C@@H](CCC(N)=O)C(=O)N[C@@H](Cc1ccc(O)cc1)C(=O)N[C@@H](CCCCN)C(=O)N[C@H](C(=O)N[C@H](C(=O)N[C@@H](CC(=O)O)C(=O)O)[C@@H](C)O)[C@@H](C)CC)[C@@H](C)CC)[C@@H](C)CC) [Compound 36]	3.2	0.32
H-H[Aib]EGTFTSELATILDEQAARDFIAWLIAHKITD[dK][dK][dK][dK][dK][dK]([γGlu-C18 diacid])-NH2 (SMILES CC[C@H](C)[C@H](NC(=O)[C@H](CC(C)C)NC(=O)[C@H](Cc1c[nH]c2ccccc12)NC(=O)[C@H](C)NC(=O)[C@@H](NC(=O)[C@H](Cc1ccccc1)NC(=O)[C@H](CC(=O)O)NC(=O)[C@H](CCCNC(=N)N)NC(=O)[C@H](C)NC(=O)[C@H](C)NC(=O)[C@H](CCC(N)=O)NC(=O)[C@H](CCC(=O)O)NC(=O)[C@H](CC(=O)O)NC(=O)[C@H](CC(C)C)NC(=O)[C@@H](NC(=O)[C@@H](NC(=O)[C@H](C)NC(=O)[C@H](CC(C)C)NC(=O)[C@H](CCC(=O)O)NC(=O)[C@H](CO)NC(=O)[C@@H](NC(=O)[C@H](Cc1ccccc1)NC(=O)[C@@H](NC(=O)CNC(=O)[C@H](CCC(=O)O)NC(=O)C(C)(C)NC(=O)[C@@H](N)Cc1c[nH]cn1)[C@@H](C)O)[C@@H](C)O)[C@@H](C)O)[C@@H](C)CC)[C@@H](C)CC)C(=O)N[C@@H](C)C(=O)N[C@@H](Cc1c[nH]cn1)C(=O)N[C@@H](CCCCN)C(=O)N[C@H](C(=O)N[C@H](C(=O)N[C@@H](CC(=O)O)C(=O)N[C@H](CCCCN)C(=O)N[C@H](CCCCN)C(=O)N[C@H](CCCCN)C(=O)N[C@H](CCCCN)C(=O)N[C@H](CCCCN)C(=O)N[C@H](CCCCNC(=O)CC[C@H](NC(=O)CCCCCCCCCCCCCCCCC(=O)O)C(=O)O)C(N)=O)[C@@H](C)O)[C@@H](C)CC) [Compound 39]	0.98	0.044
H-H[Aib]EGSFTSELATILDK([AEEA-AEEA-AEEA-iso‑Lys-C20 diacid])QAARDFIAWLIQQKITD-OH [Compound 35]	0.3	0.099
H-H[Aib]EGSFTSELATILDK([AEEA-AEEA-γGlu-C20 diacid])QAARDFIAWLKQHKITD-OH (SMILES CC[C@H](C)[C@H](NC(=O)[C@H](Cc1ccccc1)NC(=O)[C@H](CC(=O)O)NC(=O)[C@H](CCCNC(=N)N)NC(=O)[C@H](C)NC(=O)[C@H](C)NC(=O)[C@H](CCC(N)=O)NC(=O)[C@H](CCCCNC(=O)COCCOCCNC(=O)COCCOCCNC(=O)CC[C@H](NC(=O)CCCCCCCCCCCCCCCCCCC(=O)O)C(=O)O)NC(=O)[C@H](CC(=O)O)NC(=O)[C@H](CC(C)C)NC(=O)[C@@H](NC(=O)[C@@H](NC(=O)[C@H](C)NC(=O)[C@H](CC(C)C)NC(=O)[C@H](CCC(=O)O)NC(=O)[C@H](CO)NC(=O)[C@@H](NC(=O)[C@H](Cc1ccccc1)NC(=O)[C@H](CO)NC(=O)CNC(=O)[C@H](CCC(=O)O)NC(=O)C(C)(C)NC(=O)[C@@H](N)Cc1c[nH]cn1)[C@@H](C)O)[C@@H](C)O)[C@@H](C)CC)C(=O)N[C@@H](C)C(=O)N[C@@H](Cc1c[nH]c2ccccc12)C(=O)N[C@@H](CC(C)C)C(=O)N[C@@H](CCCCN)C(=O)N[C@@H](CCC(N)=O)C(=O)N[C@@H](Cc1c[nH]cn1)C(=O)N[C@@H](CCCCN)C(=O)N[C@H](C(=O)N[C@H](C(=O)N[C@@H](CC(=O)O)C(=O)O)[C@@H](C)O)[C@@H](C)CC) [Compound 34]	0.13	0.28
